Data on 167 variants can be found in the RNAGym collection of RNA variant scans (doi:10.7554/elife.80360).

B1: Hammerhead Ribozyme (parent)
chain: ACCGGAUGUGCUUUCCGGUCUGAUGAGUCCGUGAGGACGAAACAG

The series covers variants of B1. Kind of series: self-cleavage, relative activity (ratio to wild type); higher = more cleavage; co-transcriptional.
Consider G10C A40U, for which the self-cleavage stood at 0.28.

In the case of G4A A34C, the self-cleavage was 0.35.

Take U13A A26U: the self-cleavage was determined as 0.976.

Turning to U9G, the self-cleavage was 0.989.

G8C C20G: the self-cleavage was 0.288.

As to G36A A42U, the self-cleavage was found to be 0.333.

Take U28G U32G: the self-cleavage worked out at 0.449.

On to U13C C30G, for which the self-cleavage was 0.956.

For the variant U19A A40U, the self-cleavage came to 0.35.

Take G18A G25A: the self-cleavage worked out at 0.281.

For U7G G8C, the self-cleavage is 1.37.

Regarding C30U A44C, the self-cleavage is 0.632.

As to G4U G25A, the self-cleavage came out at 0.25.

In the case of G33U A42U, the self-cleavage came to 0.371.

G17U C29A: the self-cleavage was found to be 0.523.

Turning to U21G G36A, the self-cleavage worked out at 0.382.

Regarding A23C C29G, the self-cleavage stood at 0.369.

With U12G U13G, the self-cleavage turned out to be 0.848.

Regarding U12A U13G, the self-cleavage turned out to be 0.762.

U7A C16U: the self-cleavage came to 1.17.

C43A G45A: the self-cleavage worked out at 0.515.

As to U32A G36A, the self-cleavage is 0.721.

For C16G U24C, the self-cleavage is 0.942.

C16G U24G: the self-cleavage was found to be 0.611.

Regarding U32A A40C, the self-cleavage was found to be 0.622.

Regarding C15G A44U, the self-cleavage amounted to 0.408.

With G39U A42C, the self-cleavage turned out to be 0.353.

With G8A G22A, the self-cleavage turned out to be 0.403.

C16G U32C: the self-cleavage came to 0.717.

In the case of U13A C16G, the self-cleavage was determined as 1.27.

U13G U28C: the self-cleavage worked out at 1.01.

In the case of A6G U14C, the self-cleavage was 0.704.

For U7A A40U, the self-cleavage was 0.244.

On to U32C, for which the self-cleavage is 1.

For U12C G17A, the self-cleavage worked out at 0.79.

Consider G33A G39U, for which the self-cleavage is 0.344.

Take G25A U28G: the self-cleavage was 0.313.

As for A1G G25A, the self-cleavage came out at 0.43.

Consider U28A A40G, for which the self-cleavage was 0.394.

With U24C C30U, the self-cleavage amounted to 1.14.

Regarding G5U C38U, the self-cleavage turned out to be 0.498.

Turning to C3U, the self-cleavage stood at 1.03.

Turning to U32C A44U, the self-cleavage amounted to 0.359.

For C2A G17A, the self-cleavage came to 0.364.

Regarding G27A A44C, the self-cleavage came out at 0.373.

Consider G8C A23C, for which the self-cleavage was found to be 0.45.

Take G4U A37G: the self-cleavage worked out at 0.305.

As for G10C G25U, the self-cleavage is 0.277.

Consider C3A G45C, for which the self-cleavage was 0.355.

On to A23U C30G, for which the self-cleavage was found to be 0.345.

On to A6G A26G, for which the self-cleavage came out at 0.303.

With G10A U14C, the self-cleavage turned out to be 0.97.

As to C20A A44U, the self-cleavage was 0.323.

As to G31A A34G, the self-cleavage stood at 0.846.

For C38A A41U, the self-cleavage came to 0.336.

For C38A A41C, the self-cleavage came out at 0.287.

As for C30A C43G, the self-cleavage was 0.386.

Regarding A23G A40C, the self-cleavage amounted to 0.355.

As for G17U G31U, the self-cleavage stood at 0.834.

Consider U32C G39U, for which the self-cleavage worked out at 0.369.

For the variant A26C A44G, the self-cleavage is 0.803.

In the case of A1C G8C, the self-cleavage is 0.432.

Take U12A U14G: the self-cleavage worked out at 0.565.

On to C20U G35U, for which the self-cleavage came to 0.347.

As for G17U C30U, the self-cleavage was 0.755.

In the case of U9C U32C, the self-cleavage was determined as 1.49.

In the case of A41G G45U, the self-cleavage was 0.407.

In the case of C29G G45U, the self-cleavage is 0.458.

Regarding U19A G31A, the self-cleavage was determined as 0.41.

In the case of U24C A26U, the self-cleavage was 0.559.

On to C11U G17A, for which the self-cleavage came to 0.475.

On to G27A C30G, for which the self-cleavage is 0.458.

Consider A26G C38G, for which the self-cleavage worked out at 0.332.

For the variant G8U A26C, the self-cleavage stood at 0.596.

C20A A34C: the self-cleavage turned out to be 0.34.

A23C A41C: the self-cleavage amounted to 0.313.

As to G8U U32A, the self-cleavage is 0.996.

In the case of U9A A37C, the self-cleavage amounted to 1.02.

U12G C16U: the self-cleavage was determined as 0.968.

Turning to A34U G45C, the self-cleavage came to 0.533.

On to G33C A42C, for which the self-cleavage was found to be 0.268.

With G17U U21A, the self-cleavage was 0.591.

With G35A A42G, the self-cleavage came to 0.252.

Regarding G5C A42G, the self-cleavage came to 0.24.

For G17U G25U, the self-cleavage amounted to 0.37.

As for G17C G39C, the self-cleavage was 0.291.

Regarding C11A U19G, the self-cleavage worked out at 0.392.

For U12G G33U, the self-cleavage was determined as 1.2.

Take C2U A6C: the self-cleavage was found to be 0.429.

Regarding A1C G27A, the self-cleavage worked out at 0.332.

Take C3U C15G: the self-cleavage came out at 0.382.

C3G C11A: the self-cleavage was 0.702.

Regarding G25U G27C, the self-cleavage was 0.285.

As to U12C A34U, the self-cleavage is 0.668.

For the variant U14C A42U, the self-cleavage was found to be 0.423.

On to A1C G18U, for which the self-cleavage stood at 0.353.

U9C A42U: the self-cleavage was 0.345.

As to U28C A42U, the self-cleavage is 0.325.

Regarding U9G U24C, the self-cleavage worked out at 0.919.

C15U G33A: the self-cleavage came out at 0.875.

Consider G25C U28C, for which the self-cleavage turned out to be 0.309.

As for A6G U21G, the self-cleavage stood at 0.472.

U14C G22A: the self-cleavage was found to be 0.32.

As to U24A U28A, the self-cleavage was determined as 0.729.

For G4A G36C, the self-cleavage worked out at 0.343.

Turning to A6U C43U, the self-cleavage came to 0.368.

With U12A G18A, the self-cleavage turned out to be 0.726.

For G18A G31C, the self-cleavage was 0.74.

As to G35U A44C, the self-cleavage was found to be 0.384.

Turning to U14A G35U, the self-cleavage worked out at 0.721.

On to C30G A34C, for which the self-cleavage stood at 0.802.

Regarding U14A G25U, the self-cleavage was 0.297.

In the case of G17A U19G, the self-cleavage came out at 0.332.

Take U28C U32G: the self-cleavage came to 0.556.

With C2U C29G, the self-cleavage turned out to be 1.02.

As for A1U A34C, the self-cleavage is 0.492.

For the variant U13C A26G, the self-cleavage was 0.313.

Regarding U21G G25C, the self-cleavage turned out to be 0.361.

For U12A C20G, the self-cleavage was 0.312.

For the variant C11U A41G, the self-cleavage was determined as 0.386.

For U14G G39A, the self-cleavage was found to be 0.305.

Take A6U U24A: the self-cleavage was 0.494.

As to U21A G36C, the self-cleavage was 0.283.

Regarding G8C U13C, the self-cleavage is 1.2.

As for G5U G27C, the self-cleavage was determined as 0.491.

For C15U G25A, the self-cleavage is 0.366.

A1G C11U: the self-cleavage amounted to 1.33.

With C2A A6U, the self-cleavage came to 0.331.

For G25U G39C, the self-cleavage came out at 0.302.

As for G5A G25U, the self-cleavage worked out at 0.354.

Take G25A A34U: the self-cleavage was found to be 0.357.

On to A26G G35C, for which the self-cleavage amounted to 0.35.

With A6U U14C, the self-cleavage came out at 1.07.

C16U G33C: the self-cleavage was 1.17.

U7C U21C: the self-cleavage amounted to 0.403.

On to U7C U21A, for which the self-cleavage turned out to be 0.327.

Turning to G36U G45U, the self-cleavage amounted to 0.441.

Take A6U: the self-cleavage was found to be 0.696.

In the case of A6C A37U, the self-cleavage amounted to 0.449.

In the case of A6U G17U, the self-cleavage came out at 0.465.

With U24C G36A, the self-cleavage stood at 0.56.

On to A6U A40G, for which the self-cleavage was found to be 0.317.

On to C2G C20U, for which the self-cleavage amounted to 0.344.

For U7G A26U, the self-cleavage is 0.717.

Take G25C A37C: the self-cleavage was 0.285.

As to C15G G25A, the self-cleavage was determined as 0.348.

For C3G U14G, the self-cleavage amounted to 0.557.

For the variant C3G U14A, the self-cleavage was 0.347.

As for U13C G39A, the self-cleavage stood at 0.293.

Regarding C43A A44U, the self-cleavage was 0.391.

Turning to C2A G33U, the self-cleavage worked out at 0.858.

On to C20A A42G, for which the self-cleavage worked out at 0.341.

With G4U G36C, the self-cleavage was 0.313.

Turning to G10A U28G, the self-cleavage amounted to 1.15.

Consider G27U A44U, for which the self-cleavage turned out to be 0.349.

On to C16A U28C, for which the self-cleavage was 0.722.

Regarding G25U C29A, the self-cleavage was determined as 0.321.

For U19G A42U, the self-cleavage was 0.345.

Regarding G10A C29U, the self-cleavage was 1.17.

With G25A G39C, the self-cleavage is 0.305.

As for G17A G33A, the self-cleavage was 0.794.

Consider U7C A41C, for which the self-cleavage came to 0.34.

As to C15G U32A, the self-cleavage came to 0.875.

As for G8U G25C, the self-cleavage was found to be 0.302.

Regarding A34C A42U, the self-cleavage was 0.322.

As to G17U G39C, the self-cleavage came to 0.348.

As for G22U A23C, the self-cleavage came out at 0.284.
